{"source": "paper PMC2115667", "about": "(The Journal of Cell Biology, 1988)", "biological_target": "the molecule itself", "experiment": "sedimentation velocity centrifugation on glycerol gradients"}
{"protein": "cytotactin (intact, unreduced hexabrachion) (natural protein, interchain disulfide bonds; HNK-1 carbohydrate epitope; radioiodinated (chloramine T, 125I) in the ultracentrifugation) ETGLNVTLPEDNQPVVFNHVYNIKLPVGSLCSVDLDTASGDADLKAEIEPVKNYEEHTVNEGNQIVFTHRINIPRRACGCAAAPDIKDLLSRLEELEGLVSSLREQCASGAGCCPNSQTAEGRLDTAPYCSGHGNYSTEICGCVCEPGWKGPNCSEPACPRNCLNRGLCVRGKCICEEGFTGEDCSQAACPSDCNDQGKCVDGVCVCFEGYTGPDCGEELCPHGCGIHGRCVGGRCVCHEGFTGEDCNEPLCPNNCHNRGRCVDNECVCDEGYTGEDCGELICPNDCFDRGRCINGTCFCEEGYTGEDCGELTCPNNCNGNGRCENGLCVCHEGFVGDDCSQKRCPKDCNNRGHCVDGRCVCHEGYLGEDCGELRCPNDCHNRGRCINGQCVCDEGFIGEDCGELRCPNDCHNRGRCVNGQCECHEGFIGEDCGELRCPNDCNSHGRCVNGQCVCDEGYTGEDCGELRCPNDCHNRGRCVEGRCVCDNGFMGEDCGELSCPNDCHQHGRCVDGRCVCHEGFTGEDCRERSCPNDCNNVGRCVEGRCVCEEGYMGIDCSDVSPPTELTVTNVTDKTVNLEWKHENLVNEYLVTYVPTSSGGLDLQFTVPGNQTSATIHELEPGVEYFIRVFAILKNKKSIPVSARVATYLPAPEGLKFKSVRETSVQVEWDPLSISFDGWELVFRNMQKKDDNGDITSSLKRPETSYMQPGLAPGQQYNVSLHIVKNNTRGPGLSRVITTKLDAPSQIEAKDVTDTTALITWSKPLAEIEGIELTYGPKDVPGDRTTIDLSEDENQYSIGNLRPHTEYEVTLISRRGDMESDPAKEVFVTDLDAPRNLKRVSQTDNSITLEWKNSHANIDNYRIKFAPISGGDHTELTVPKGNQATTRATLTGLRPGTEYGIGVTAVRQDRESAPATINAGTDLDNPKDLEVSDPTETTLSLRWRRPVAKFDRYRLTYVSPSGKKNEMEIPVDSTSFILRGLDAGTEYTISLVAEKGRHKSKPTTIKGSTEEEPELGNLSVSETGWDGFQLTWTAADGAYENFVIQVQQSDNPEETWNITVPGGQHSVNVTGLKANTPYNVTLYGVIRGYRTKPLYVETTTGAHPEVGELTVSDITPESFNLSWTTTNGDFDAFTIEIIDSNRLLEPMEFNISGNSRTAHISGLSPSTDFIVYLYGISHGFRTQAISAAATTEAEPEVDNLLVSDATPDGFRLSWTADDGVFDSFVLKIRDTKRKSDPLELIVPGHERTHDITGLKEGTEYEIELYGVSSGRRSQPINSVATTVVGSPKGISFSDITENSATVSWTPPRSRVDSYRVSYVPITGGTPNVVTVDGSKTRTKLVKLVPGVDYNVNIISVKGFEESEPISGILKTALDSPSGLVVMNITDSEALATWQPAIAAVDNYIVSYSSEDEPEVTQMVSGNTVEYDLNGLRPATEYTLRVHAVKDAQKSETLSTQFTTGLDAPKDLSATEVQSETAVITWRPPRAPVTDYLLTYESIDGRVKEVILDPETTSYTLTELSPSTQYTVKLQALSRSMRSKMIQTVFTTTGLLYPYPKDCSQALLNGEVTSGLYTIYLNGDRTQPLQVFCDMAEDGGGWIVFLRRQNGKEDFYRNWKNYVAGFGDPKDEFWIGLENLHKISSQGQYELRVDLRDRGETAYAVYDKFSVGDAKTRYRLRVDGYSGTAGDSMTYHNGRSFSTFDKDNDSAITNCALSYKGAFWYKNCHRVNLMGRYGDNNHSQGVNWFHWKGHEYSIQFAEMKLRPSSFRNLEGRRKRA", "values": [{"measurement": "stoichiometry N", "result": "~6"}]}
